# Where “and” joins values, the source holds several entries; their conditions need not be identical. Identical values can stand only once.
# B1: Napin-1A wild type, P24565 (protein)
# chain: QPQKCQREFQQEQHLRACQQWIRQQLAGSPFQSGPQEGPWLREQCCNELYQEDQVCVCPTLKQAAKSVRVQGQHGPFQSTRIYQIAKNLPNVCNMKQIGTCPFIAIPFFP
# Conditions: Brassica napus, pH 7, 27 °C, GdnHCl, phosphate 0.02 M, transition: 3, reversible: Yes, whole UniProt chain shown
protein,measurement,setting,value
B1,denaturant m value,CD,1.8 kcal/mol/M and 1.2 kcal/mol/M
same,unfolding free energy,CD,5.2 kcal/mol and 5.1 kcal/mol
same,denaturant m value,Fluorescence,1.6 kcal/mol/M and 1.3 kcal/mol/M
same,unfolding free energy,Fluorescence,5.2 kcal/mol and 5.1 kcal/mol

# Source: FireProtDB (doi:10.1016/j.bbapap.2007.04.008)
